The series is described as follows: label from the status in PepcDB records.
With “MALVYLVQSDTTIGLLSKDSEKLNALKGRPKNQSVLIESADFSTLKSLVRAPNAFKNLIRRSAKTTFIYPNSKAVRVIRGRHGDFLNRFKTLYSTSANLTQCAYDKEIASNLADVIVSDERGLFESSSSKIFRLYKDKKVRIR”, the protein production result is “failed”.

Turning to “MALWMDAGATPTTEKEKADLEAISALKESTAIEFKEEGNECVRKGKKHYSEAIDCYTKAISQGVLSDSETSILFSNRSHVNLLLGNYRRALTDAEESMRLSPHNVKAVYRAAKASMSLDLLNEAKSYCEKGIENDPSNEDMKKLLKLVNSKKQEKEQHEAQASQAVVEAKACLSAIENRGVKIGKAMYRELTGLKKPMLDKNNILHWPVLLLYAEAMTSDFVEDFCETDMFATHLDMMFSEDSPPLPWDKNNEYSRDVIELYYEASSGTPLPRSRVLQYLLEGTKGSQAETTGEEDTSATKTPSYLKGSSGMVKVNERRTLHDVLKEPKFVIPEIPVFYIVSKRSKFYKDFTAGKWTPPN”, the protein production result was “failed”.

Take “MAMAVPVSARPQSPAEGFYAINNQFQTNGPKGFSEIKILANEDMFLRMDLPGVPDEGGLSVYHNRSQETVVVFAKAPKVHTHDSTERRYQTMTGIGCSCCAISSITTHMSDGVFRVILSKTRIDPHRSPCTDPALTGPVLQPHPLAFPQPTMAYESKQLPNGKLFVRADMPGVPKENFTVSVTNGRVKVTGQAPAVSHDSSGRFYSGDVAMLSTPVDIPSRRIKTIAKNGVIRLLIPPF”: the protein production result was “failed”. On to “MAMSVKTISPIEAHRLVTGGRAVLVDVRERHEIAREHIDGAIELPLTGFKHGDLGAAHGRKAIFFCHSGGRTRMYAGQIDAKARGVCEPYVLGGGILAWRRAGFPTVQGPKPPSLFQRLFGRKPAD”, for which the protein production result is “failed”. For the sequence “MANAVVAIAGSSGLIGSALTAALRAADHTVLRIVRRAPANSEELHWNPESGEFDPHALTDVDAVVNLCGVNIAQRRWSGAFKQSLRDSRITPTEVLSAAVADAGVATLINASAVGYYGNTKDRVVDENDSAGTGFLAQLCVDWETATRPAQQSGARVVLARTGVVLSPAGGMLRRMRPLFSVGLGARLGSGRQYMSWISLEDEVRALQFAIAQPNLSGPVNLTGPAPVTNAEFTTAFGRAVNRPTPLMLPSVAVRAAFGEFADEGLLIGQRAIPSALERAGFQFHHNTIGEALGYATTRPG”, the protein production entry is reported as “failed”. As for “MANHKPEIVITYCTQCQWLLRAAWLAQELLSTFADDLGRVALEPGTGGIFRITCNGVQIWERKADGGFPEAKVLKQRVRDQVDPQRDLGHNDR”, the protein production result is “not failed”. For “MANIAVQRIKREFKEVLKSEETTKNQIKVDLVDENFTELRGEIAGPPDTPYEGGRYQLEIKIPETYPFNPPKVRFITKIWHPNISSVTGAICLDILKDQWAAAMTLRTVLLSLQALLAAAEPDDPQDAVVANQYKQNPEMFKQTARLWAHVYAGAPVSSPEYTKKIENLCAMGFDRNAVIVALSSKSWDVETATELLLSN” the value was “not failed”. The result for “MANLKVGDVLEDRYRIETPIARGGMSTVYRCLDLRLGRSMALKVMEEDFVDDPIFRQRFRREARSMAQLNHPNLVNVYDFSATDGLVYLVMELITGGTLRELLAERGPMPPHAAVGVMRGVLTGLAAAHRAGMVHRDIKPDNVLINSDHQVKLSDFGLVRAAHAGQSQDNQIVGTVAYLSPEQVEGGEIGPASDVYSAGIVLFELLTGTTPFSGEDDLDHAYARLTEVVPAPSSLIDGVPSLIDELVATATSINPEDRFDDSGEFLSALEDVATELSLPAFRVPVPVNSAANRANAQVPDAQPTDMFTTHIPKTPEPDHTAIIPVASANETSILPAQNMAQNMAQNPLQPPEPDFAPEPPPDTALNIQDQELARADEPEINTVSNRSKLKLTLWSIFVVAVIAAVAVGGWWFGSGRYGEIPQVLGMDEVQAVAVVEEAGFVAVAEPQYDNEVPTGSIIGTEPSFGERLPRGEDVSVLVSQGRPVVPDLSEDRSLSTVREELEQRTFVWVDGPGEYSDDVPEGQVVSFTPSSGTQLDVGETVQIHLSRGPAPVEIPDVSGMGVDQATRVLERAGLSVERTEEGFDAETPNGDVYGTSPKVSTEVKRGTSVVLQVSNAISVPDVVGMTKDEATAALAEEGLVVASTSIIPGEAASSADAVVTVEPESGSRVDPAHPQVSLGLAGEIQVPSVVGRKVSDARSILEEAGLTLTTDADDNDRIYSQTPRARSEVSVGGEVTVRAF” reads “failed”; that for “MANQLDASVKDDLKTQFVTREGTYRLLTLSEYSRPNRVGYSSNQSSPQVRVSMVTLPSPAQGKLGSDVGVGTPVGGGTAGANTTTTNGSSPGASPTGAAGASTAISNGGAGGDYSHSNHNSNSAGNNTVEARLGGGISMHSMMNGGVVDQNGVATNQVLGGDRICFNFGRDLYVYSFRGAKKGTEMSKPIDKKFYKGTNPSCHDFNISSATPTGAPLLVGFTTGQIQLVSPHVGPREVRKLFNEERLIDKTKVTCLKWLPNSPHLFLAAHASGHLYLYNEELPCAATAPSYQPFKLGDGYTILTSKSKTTRNPLFKWVFSTDNCCVNEFCFSPCGSHLAVVSQDGFLRVFHYDTMELLGIARSYFGGFLCVCWSPDGKYIVVGGEDDLVTVWSLHERRVVARGQGHRSWVSVVAFDPYTTSYTNWDGGDFSDDENQMNEYSHSREARFSGDSTANGGFEGFDRNSTPVHADRNGPHSASFRSDASSAEKLMSYRLGSVSQDTQICLWDITEDVLRHPLVLRQPANSERAYLNGGVDEEAEAEDGIKVIRPVAMSGQATGQQAESGSCSPTREAAGGGTGNGAGEHSNSSSSKFSTANCTISSQSSPDDCDTEAATPASTSSNAGAGSVAGAGAVASTKQNNRNHGTGNSIKFPNCISATKSDSIDGGGGSGSGQRPSQTTSGYNSKTSNSSNKSSNSGSGFSAFNSLTQRLSNFSFLSSSEKKGAGYEGSHSTAHRQHRKAMSMLKSYNQHNHTGGHNNHSQSNNSSSSNFGHSSTLDSNAAGAIGSSSTAHSFGSLKLSRSSHHSSLATAAHASGSAAGSGSGVSSFDPMQLIGTPACPRFDECPLLEPLVCKKIAHERLTALIFREDCFLTACQDGFIYTWARPGHATHATQHLSPGQAAAPGGTVI”, “failed”; that for “MANVSLNKVDKQALVHQPNLLRECFALLVNAHYQTSPNDLLHLLRDDNSSVYLAMDKQNIIGVILTVEEGGLDDELIEAIQLGQRRPKGHLTPITIINQLGLVKVGKLITSRVMRIAVHPDLQGSGIGKRMLTLLEESVGAHVDYLSTSFGATDELIQFWQQAGYQSIRLGTMRDAASGCYSLLMVRQLANKSQ”, “failed”. For “MANWLNQLQSLLGQSSSSTSSSADQGLGKLLVSGALGGLAGLLVANKSARKLLTKYGTNALLVGGGAVAGTVLWNKYKDKIRAAHQDEPQFGAQSTPLDERTERLILALVFAAKSDGHIDANERAAIDQQLREAGVEEQGRVLIEQAIEQPLDPQRLATGVRNEEEALEIYFLSCAAIDIDHFMERSYLNALGDALKIPQDVREGIERDLEQQKRTLAE” the value was “failed”; for “MANWRGAGDSLSTGTGGSEAPPRKSPARLHQWRKLRVSHDDRTCPYQRCRHHLLRRIADARRRYRLLCRRSEHEHSRRVDRSFAEARHGRRRPGRCRSSHPQGCGHRQRDPHKIMSAAPAAPALDALGPDTPAHTVDAFHRGRFWLVQPKHGGHRAGMDAMMLAASVPSVFGGRLADFGAGAGAAGLAVLSRCPAARAVLVERAPEMAAFASATLAHPGNAHLSDRASVLVADVTVSGQARVAAGLADNDFDYVIMNPPFNAARDRATPDRLRKEAHVMEDGLFESWIRSAAAVVRPRGGLAVIARPEQLGAILDAMSGRFGDAEMLAVHPRPDAAAIRIIVRAALGARGKLAIRPPLMLHAQAGNGPDERSEMITNGLASLFGD”, “failed”.

In the case of “MAPAKSPRAWQRMLSGRRLDLLDPSPLDVEIADIAHGLARVARWNGQTRGDHAFTVAQHCLIVETIFCRMCPGATPDEMQMALLHDAPEYVIGDMISPFKSVVGGGYKTVEKRLEAAVHLRFGLPPHASRELKDRIKKADTVAAFFEATELAGFSTAEAQKFFGLPRGITRDMFDIIPLPSTEAQRLFIARFEAIETLRVTRTGGAV”, the protein production result was “not failed”.

For the origin of these results see a protein production outcome set (Wang et al. 2014).
